Test [1] deals with ScFv anti CEA-CPG2 fusion protein (Pseudomonas, UniProt P06621 23-415). Kind of test: cell-based or functional assay.
The target in test [2] is T1, carcino-embryonic antigen (CEA) (human, UniProt P06731 35-685).
T1 construct: whole, on cells; The legends print the cell line as CCI-229; also called surface protein CEA; CEA surface antigen
T1 sequence (looked up): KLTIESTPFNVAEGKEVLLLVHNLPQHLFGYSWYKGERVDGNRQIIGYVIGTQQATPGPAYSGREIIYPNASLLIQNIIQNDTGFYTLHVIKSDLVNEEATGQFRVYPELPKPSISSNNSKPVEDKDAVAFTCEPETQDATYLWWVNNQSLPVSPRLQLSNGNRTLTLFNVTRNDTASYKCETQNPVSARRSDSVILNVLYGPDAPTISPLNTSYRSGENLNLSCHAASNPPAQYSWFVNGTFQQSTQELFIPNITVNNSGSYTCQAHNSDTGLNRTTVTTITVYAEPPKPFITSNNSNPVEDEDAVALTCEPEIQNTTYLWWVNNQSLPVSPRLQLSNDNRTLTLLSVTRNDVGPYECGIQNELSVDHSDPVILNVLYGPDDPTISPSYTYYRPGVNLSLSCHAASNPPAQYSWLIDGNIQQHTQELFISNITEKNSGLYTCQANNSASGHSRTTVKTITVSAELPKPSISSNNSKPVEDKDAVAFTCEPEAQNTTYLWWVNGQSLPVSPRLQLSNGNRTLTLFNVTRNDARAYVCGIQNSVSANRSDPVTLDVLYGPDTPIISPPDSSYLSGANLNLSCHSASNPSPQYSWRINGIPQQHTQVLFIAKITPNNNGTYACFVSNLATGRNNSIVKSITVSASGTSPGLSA
Briefly: flow cytometry on CCL 229 (LoVo) CEA expressing cells. The method, then: A study to look at antibodies generated in sheep to CEA and the ScFv anti CEA-CPG2 Fusion protein was carried out with analysis using flow cytometry. Measurement by Flow Cytometry of Binding Capability of scFv Anti-CEA-CPG2 Using CEA Expressing Cells. Materials: Cells Lines: CRL 1573—control cell line, CCL 229 (LoVo)—CEA expressing cell line Antibodies/Conjugates: CPG2-PE (Phycoerythrin), CPG2 100 U/ml 1:100 dilution of 100 U conjugated ScFv anti-CEA-CPG2-PE UCL, 40-50 U/ml, 0.71 mg/ml protein 2.5 µg/ml in buffer containing BSA Sheep anti-CEA-PE, CF 1110-PE; Stock at 670 µg/ml. Mouse anti human CEA UCL at 3.9 mg/ml 2.5 µg/ml in buffer containing BSA Goat anti-Mouse-PE Southern Biotech 1050-09 L2806-XH69Z kappa chain specific at 0.25 mg/ml used at 1 µg/ml 4.5 ml polystyrene tubes, PBS azide, BSA, PBS+0.5% Formaldehyde (Polysciences #18814), Propidium Iodine (Orpegen at 100 mg/ml) Centrifuge Eppendorf 5810R set to 250G, 5 mins, 4° C. Coulter XL flow cytometer Method: Cultured cells were both used at 2×10^5 cells per tube, cells in tubes were prepared to contain the following 1. Nothing added, auto fluorescence tested 2. Propidium Iodine at a final concentration of 10 µg/ml 3. CPG2-PE 4. ScFv anti CEA-CPG2-PE 5. Sheep anti CEA-PE 6. Mouse anti CEA/anti Mouse-PE Cells were spun down and 100 µl of antibody solution was added to respective tube. […]
(In flow cytometry, cells or beads pass a laser one at a time.)

Non-standard residues stand in square brackets, D forms with d. No end group written: not given here. ANA = not defined here

B1: CP006 (peptide)
peptide: [ANA]-Glu
modifications: reading uncertain; also: printed as ANA-Glu
For the molecule B1, the “IC50, inhibition assay of CPG2 activity (methotrexate hydrolysis)” value in test [1] was found to be 88.5 µM.

B2: CPG2-PE (Phycoerythrin) (enzyme, Pseudomonas, UniProt P06621 23-415, looked up)
chain: ALAQKRDNVLFQAATDEQPAVIKTLEKLVNIETGTGDAEGIAAAGNFLEAELKNLGFTVTRSKSAGLVVGDNIVGKIKGRGGKNLLLMSHMDTVYLKGILAKAPFRVEGDKAYGPGIADDKGGNAVILHTLKLLKEYGVRDYGTITVLFNTDEEKGSFGSRDLIQEEAKLADYVLSFEPTSAGDEKLSLGTSGIAYVQVNITGKASHAGAAPELGVNALVEASDLVLRTMNIDDKAKNLRFNWTIAKAGNVSNIIPASATLNADVRYARNEDFDAAMKTLEERAQQKKLPEADVKVIVTRGRPAFNAGEGGKKLVDKAVAYYKEAGGTLGVEERTGGGTDAAYAALSGKPVIESLGLPGFGYHSDKAEYVDISAIPRRLYMAARLIMDLGAGK
modifications: conjugated to phycoerythrin (PE)
notes: PE-labelled enzyme without the scFv, used as a control in flow cytometry; also called CPG2 control; carboxypeptidase G2
Take B2: the binding result in test [2] is listed as “no binding (tested: CPG2 100 U/ml 1:100 dilution)”.

These data come from patent US8846861 (dated 2014).
